Assay results: publication PMC13626732
pKd: −log10 of the molar value.

What was measured:
[1] = biological target: actin-related protein (Arp) 2/3 complex (UniProt P61160); assay: SPR; Arpin variants and dual-tailed peptides against the Arp2/3 complex; who was immobilised was not shown; hArpin as the dimer-enriched population
[2] = biological target: GST-aCT (chimeric protein with Arpin's CT fused to the C-terminus of glutathione S-transferase); assay: SEC; recombinant GST-aCT

Question: How did the pKd [1] turn out when “full-length human Arpin (hArpin) (from UniProt Q7Z6K5 1-226) (natural protein)” was run?
Answer: The pKd was 4.85.

Question: What does the source list for “GST-aCT (chimeric protein with Arpin's CT fused to the C-terminus of glutathione S-transferase)”?
Answer: stoichiometry N [2]: 2; pKd [1]: 5.60

Question: With “ArpinCT (residues 192–226) (from UniProt Q7Z6K5 192-226) (peptide)” as the substance, how does the pKd [1] read?
Answer: Its pKd is 4.75.
